Measured values from publication PMC3797037, “Structural and Mechanistic Insight into DNA Unwinding by Deinococcus radiodurans UvrD” (PLoS ONE, 2013).

Legend:
[1] = substrate: Nc1ncnc2c1ncn2[C@@H]1O[C@H](COP(=O)(O)OP(=O)(O)OP(=O)(O)O)[C@@H](O)[C@H]1O; assay: spectrophotometric ATPase assay; type: biochemical, Deinococcus radiodurans; conditions: ssDNA-stimulated: excess 25mer polydT (10xKssDNA), ATP 0-1 mM, 100 nM enzyme, 5 mM MgCl2, 100 mM NaCl, pH 8.0, 25°C
Excerpt: spectrophotometric ATPase assay on drUvrD^FL | determine their apparent turnover rates (Kcat) for ATP hydrolysis, along with their Km for ATP

[2] = substrate: Nc1ncnc2c1ncn2[C@@H]1O[C@H](COP(=O)(O)OP(=O)(O)OP(=O)(O)O)[C@@H](O)[C@H]1O; assay: spectrophotometric ATPase assay; type: biochemical, Deinococcus radiodurans; conditions: ssDNA-stimulated: excess 25mer polydT (10xKssDNA), ATP 0-1 mM, 100 nM enzyme, 5 mM MgCl2, 100 mM NaCl, pH 8.0, 25°C; remark: listed apart in the source
Excerpt: spectrophotometric ATPase assay on drUvrD^∆C | ATPase data measured on drUvrD^FL and drUvrD^∆C

drUvrD FL (WT) [3] = molecular target: T1, drUvrD FL (WT) (Deinococcus radiodurans, UniProt Q9RTI9 1-745); assay: fluorescence anisotropy; 1 mM AMPPNP; Fluorescence anisotropy: buffer A (composition not in material) + 0.05% Tween 20, 0.1 mg/mL BSA, 1 mM AMPPNP; 2.5 nM DNA, 0-8 µM protein, 80 µl, room temperature; single-site fit; conditions: protein: recombinant, tags: N-terminal His-tag cleaved with TEV (pET151d), label: fluorescein (internal dT12), 25 bp duplex, other end blunt
T1 sequence: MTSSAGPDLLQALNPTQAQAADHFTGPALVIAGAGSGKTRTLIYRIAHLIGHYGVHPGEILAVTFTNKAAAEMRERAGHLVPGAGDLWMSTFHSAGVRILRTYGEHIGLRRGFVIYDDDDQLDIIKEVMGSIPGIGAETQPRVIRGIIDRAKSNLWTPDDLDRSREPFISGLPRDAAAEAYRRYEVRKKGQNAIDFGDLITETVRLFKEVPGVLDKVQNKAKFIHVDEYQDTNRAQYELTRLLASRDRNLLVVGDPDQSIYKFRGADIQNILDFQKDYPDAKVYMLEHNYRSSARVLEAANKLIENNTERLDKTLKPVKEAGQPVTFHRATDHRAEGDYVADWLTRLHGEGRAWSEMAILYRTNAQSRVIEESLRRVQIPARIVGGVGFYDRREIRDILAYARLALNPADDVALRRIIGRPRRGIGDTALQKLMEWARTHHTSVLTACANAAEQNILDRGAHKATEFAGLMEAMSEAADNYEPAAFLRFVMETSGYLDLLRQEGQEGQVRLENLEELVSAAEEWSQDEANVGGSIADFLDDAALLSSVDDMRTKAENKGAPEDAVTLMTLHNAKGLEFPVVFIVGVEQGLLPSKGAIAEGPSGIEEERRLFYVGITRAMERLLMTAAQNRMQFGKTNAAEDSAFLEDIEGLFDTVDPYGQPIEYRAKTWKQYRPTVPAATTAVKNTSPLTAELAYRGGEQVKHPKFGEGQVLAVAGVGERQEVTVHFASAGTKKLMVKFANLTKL

drUvrD G426T = molecular target: T2, drUvrD G426T (Deinococcus radiodurans, UniProt Q9RTI9 1-745, G426T); assay: fluorescence anisotropy; 1 mM AMPPNP; not significantly different from WT; Fluorescence anisotropy: buffer A (composition not in material) + 0.05% Tween 20, 0.1 mg/mL BSA, 1 mM AMPPNP; 2.5 nM DNA, 0-8 µM protein, 80 µl, room temperature; single-site fit; conditions: protein: recombinant, tags: N-terminal His-tag cleaved with TEV (pET151d), label: fluorescein (internal dT12), 25 bp duplex, other end blunt
T2 sequence: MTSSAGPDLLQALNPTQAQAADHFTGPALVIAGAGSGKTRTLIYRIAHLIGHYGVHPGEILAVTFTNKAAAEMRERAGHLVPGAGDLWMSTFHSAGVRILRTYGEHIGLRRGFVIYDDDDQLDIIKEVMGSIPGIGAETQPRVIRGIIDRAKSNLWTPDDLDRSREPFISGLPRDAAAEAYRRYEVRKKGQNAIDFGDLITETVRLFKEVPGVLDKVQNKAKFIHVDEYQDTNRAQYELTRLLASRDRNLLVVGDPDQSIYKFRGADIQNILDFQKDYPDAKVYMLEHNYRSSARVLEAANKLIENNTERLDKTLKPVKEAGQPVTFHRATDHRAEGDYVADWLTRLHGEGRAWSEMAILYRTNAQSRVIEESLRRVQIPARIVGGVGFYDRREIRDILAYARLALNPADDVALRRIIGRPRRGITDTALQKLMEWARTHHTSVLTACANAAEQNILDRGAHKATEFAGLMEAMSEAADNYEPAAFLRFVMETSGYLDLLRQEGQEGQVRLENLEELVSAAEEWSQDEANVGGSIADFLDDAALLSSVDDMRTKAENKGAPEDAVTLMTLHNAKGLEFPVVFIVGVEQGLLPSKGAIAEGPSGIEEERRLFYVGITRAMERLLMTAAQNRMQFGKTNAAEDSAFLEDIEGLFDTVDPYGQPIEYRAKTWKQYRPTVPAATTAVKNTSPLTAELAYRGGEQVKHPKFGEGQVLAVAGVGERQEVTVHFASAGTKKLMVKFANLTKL

drUvrD FL (WT) [4] = molecular target: T1, drUvrD FL (WT); assay: X-ray crystallography (4.0 Å); AMPPNP, P21; Fluorescence anisotropy: buffer A (composition not in material) + 0.05% Tween 20, 0.1 mg/mL BSA, 1 mM AMPPNP; 2.5 nM DNA, 0-8 µM protein, 80 µl, room temperature; single-site fit; conditions: protein: recombinant; tags: N-terminal His-tag cleaved with TEV (pET151d); 21 bp duplex, 3' overhang 7 nt (dT7) at both ends
drUvrDΔC [5] = molecular target: T3, drUvrDΔC (Deinococcus radiodurans, UniProt Q9RTI9 1-665, del666-745); assay: X-ray crystallography (2.5 Å); AMPPNP, form I, P212121; Fluorescence anisotropy: buffer A (composition not in material) + 0.05% Tween 20, 0.1 mg/mL BSA, 1 mM AMPPNP; 2.5 nM DNA, 0-8 µM protein, 80 µl, room temperature; single-site fit; conditions: protein: recombinant; tags: N-terminal His-tag cleaved with TEV (pET151d); chain copies: 2; 18 bp duplex, 3' overhang 7 nt (dT7) at both ends
T3 sequence: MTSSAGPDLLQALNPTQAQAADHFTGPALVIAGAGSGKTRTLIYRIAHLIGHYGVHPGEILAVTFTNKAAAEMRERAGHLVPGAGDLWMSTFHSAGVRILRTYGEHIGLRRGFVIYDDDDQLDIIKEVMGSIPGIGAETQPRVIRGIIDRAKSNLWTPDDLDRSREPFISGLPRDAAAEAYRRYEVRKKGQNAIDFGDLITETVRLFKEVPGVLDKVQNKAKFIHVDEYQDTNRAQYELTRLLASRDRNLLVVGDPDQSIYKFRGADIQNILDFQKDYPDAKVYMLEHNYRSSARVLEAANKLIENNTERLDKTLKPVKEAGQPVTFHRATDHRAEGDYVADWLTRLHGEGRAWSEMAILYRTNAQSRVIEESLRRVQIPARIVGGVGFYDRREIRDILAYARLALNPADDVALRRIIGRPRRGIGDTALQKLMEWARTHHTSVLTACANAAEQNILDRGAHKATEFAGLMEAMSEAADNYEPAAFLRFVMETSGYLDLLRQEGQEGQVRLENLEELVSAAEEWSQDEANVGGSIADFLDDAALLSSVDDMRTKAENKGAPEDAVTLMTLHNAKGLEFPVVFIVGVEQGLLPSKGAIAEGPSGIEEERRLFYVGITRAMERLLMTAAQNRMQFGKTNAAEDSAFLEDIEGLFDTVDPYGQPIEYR

drUvrDΔC [6] = molecular target: T3, drUvrDΔC; assay: X-ray crystallography (3.0 Å); fluorescein-dT21 DNA; Fluorescence anisotropy: buffer A (composition not in material) + 0.05% Tween 20, 0.1 mg/mL BSA, 1 mM AMPPNP; 2.5 nM DNA, 0-8 µM protein, 80 µl, room temperature; single-site fit; conditions: protein: recombinant; tags: N-terminal His-tag cleaved with TEV (pET151d); chain copies: 2; label: fluorescein (internal dT21); 18 bp duplex, 3' overhang 7 nt at both ends
[7] = 3' overhang 15 nt (dT15) on strand 2
[8] = 5' overhang 15 nt (dT15) on strand 2

B1: drUvrD^FL (Deinococcus radiodurans R1 = ATCC 13939 = DSM 20539) (protein)
chain: MTSSAGPDLLQALNPTQAQAADHFTGPALVIAGAGSGKTRTLIYRIAHLIGHYGVHPGEILAVTFTNKAAAEMRERAGHLVPGAGDLWMSTFHSAGVRILRTYGEHIGLRRGFVIYDDDDQLDIIKEVMGSIPGIGAETQPRVIRGIIDRAKSNLWTPDDLDRSREPFISGLPRDAAAEAYRRYEVRKKGQNAIDFGDLITETVRLFKEVPGVLDKVQNKAKFIHVDEYQDTNRAQYELTRLLASRDRNLLVVGDPDQSIYKFRGADIQNILDFQKDYPDAKVYMLEHNYRSSARVLEAANKLIENNTERLDKTLKPVKEAGQPVTFHRATDHRAEGDYVADWLTRLHGEGRAWSEMAILYRTNAQSRVIEESLRRVQIPARIVGGVGFYDRREIRDILAYARLALNPADDVALRRIIGRPRRGIGDTALQKLMEWARTHHTSVLTACANAAEQNILDRGAHKATEFAGLMEAMSEAADNYEPAAFLRFVMETSGYLDLLRQEGQEGQVRLENLEELVSAAEEWSQDEANVGGSIADFLDDAALLSSVDDMRTKAENKGAPEDAVTLMTLHNAKGLEFPVVFIVGVEQGLLPSKGAIAEGPSGIEEERRLFYVGITRAMERLLMTAAQNRMQFGKTNAAEDSAFLEDIEGLFDTVDPYGQPIEYRAKTWKQYRPTVPAATTAVKNTSPLTAELAYRGGEQVKHPKFGEGQVLAVAGVGERQEVTVHFASAGTKKLMVKFANLTKL
notes: full-length (residues to 745), pET151d, E. coli BL21 (DE3), N-terminal His-tag cut with TEV protease; crystallized as a monomer, two per DNA duplex
B1 showed a Km [1] of 62.1 ± 6.6 µM and a kcat [1] of 149.3 ± 3.5 s⁻¹.

B2: drUvrD^∆C (Deinococcus radiodurans R1 = ATCC 13939 = DSM 20539) (protein)
chain: MTSSAGPDLLQALNPTQAQAADHFTGPALVIAGAGSGKTRTLIYRIAHLIGHYGVHPGEILAVTFTNKAAAEMRERAGHLVPGAGDLWMSTFHSAGVRILRTYGEHIGLRRGFVIYDDDDQLDIIKEVMGSIPGIGAETQPRVIRGIIDRAKSNLWTPDDLDRSREPFISGLPRDAAAEAYRRYEVRKKGQNAIDFGDLITETVRLFKEVPGVLDKVQNKAKFIHVDEYQDTNRAQYELTRLLASRDRNLLVVGDPDQSIYKFRGADIQNILDFQKDYPDAKVYMLEHNYRSSARVLEAANKLIENNTERLDKTLKPVKEAGQPVTFHRATDHRAEGDYVADWLTRLHGEGRAWSEMAILYRTNAQSRVIEESLRRVQIPARIVGGVGFYDRREIRDILAYARLALNPADDVALRRIIGRPRRGIGDTALQKLMEWARTHHTSVLTACANAAEQNILDRGAHKATEFAGLMEAMSEAADNYEPAAFLRFVMETSGYLDLLRQEGQEGQVRLENLEELVSAAEEWSQDEANVGGSIADFLDDAALLSSVDDMRTKAENKGAPEDAVTLMTLHNAKGLEFPVVFIVGVEQGLLPSKGAIAEGPSGIEEERRLFYVGITRAMERLLMTAAQNRMQFGKTNAAEDSAFLEDIEGLFDTVDPYGQPIEYR
notes: C-terminally truncated, missing residues 666-745; pET151d, E. coli BL21 (DE3), N-terminal His-tag cut with TEV protease; crystallized as a monomer, two per DNA duplex
B2 was tested, and the Km [2] was 77.0 ± 16.9 µM and the kcat [2] was 213.2 ± 11.7 s⁻¹.

B3: 3'-tailed dsDNA (H1T12/H3-15) (dsDNA)
DNA 1: TCGGTACGACCTGCGAGCACTGCTT
DNA 2: AAGCAGTGCTCGCAGGTCGTACCGATTTTTTTTTTTTTTT
modifications: fluorescein-dT at position 12 of strand 1
In the case of B3, the Kd (drUvrD FL (WT) [3]; [7]) is reported as 360 nM and the binding result (drUvrD G426T; [7]) is reported as “binds”.

B4: 5'-tailed dsDNA (H1T12/H5-15) (dsDNA)
DNA 1: TCGGTACGACCTGCGAGCACTGCTT
DNA 2: TTTTTTTTTTTTTTTAAGCAGTGCTCGCAGGTCGTACCGA
modifications: fluorescein-dT at position 12 of strand 1
For B4, the Kd (drUvrD FL (WT) [3]; [8]) was 480 nM and the binding result (drUvrD G426T; [8]) was “binds”.

B5: For28/Rev28 (dsDNA)
DNA 1: GCAGTGCTCGCAGGTCGTACCTTTTTTT
DNA 2: GGTACGACCTGCGAGCACTGCTTTTTTT
B5: binds (drUvrD FL (WT) [4]).

B6: For25/Rev25 (dsDNA)
DNA 1: GCAGTGCTCGCAGGTCGTTTTTTTT
DNA 2: ACGACCTGCGAGCACTGCTTTTTTT
B6: binds (drUvrDΔC [5]).

B7: For25-21F/Rev25-21F (dsDNA)
DNA 1: GCAGTGCTCGCAGGTCGTTTTTTTT
DNA 2: ACGACCTGCGAGCACTGCTTTTTTT
modifications: fluorescein-dT at position 21 of both strands
B7: binds (drUvrDΔC [6]).
